{
  "source": "patent US20220064310A1",
  "about": "(DEVELOPMENT CENTER FOR BIOTECHNOLOGY, published 2022)",
  "binders": {"B1": {"name": "mouse hybridoma anti-human CSF-1R antibody mAb AB21 (antibody, V domains shown)", "VH": "EVQLQQSGPELEKPGASVKISCKASGYSFTGYNMNWVKQSNGKSLEWIGNIDPYYGGTTYNQKFKGKATLTVDKSSSTAYMQLKSLTSEDSAVYYCARRGDYSGSSYWYFDVWGAGTTVTVSS", "VL": "DIQMTQSSSYLSVSLGGRVTITCKASDHINNWLAWYQQKPGNAPRLLISGATSLETGVPSRFSGSGSGKDYTLSITSLQTEDVVTYYCQQYWSTPFTFGSGTKLEIK", "notes": "Mouse monoclonal antibody purified from hybridoma ascites (Protein A); also called AB21 mAb; mAb 21"}},
  "key": {"[1]": {"target": "T1, human CSF-1R extracellular domain (CSF-1R-ECD) (human, UniProt P07333 20-512)", "assay": "Biacore T200 SPR, AB21 amine-coupled on the chip, CSF-1R-ECD injected at 0.3125 to 40 nM, 1:1 Langmuir fit", "from_the_text": "(§1) To know the biding kinetics difference among individual antibodies, surface plasmon resonance (SPR) measurement with a BIAcore T200 (BIAcore, Inc., Piscataway, N.J.) was used as previously described (Karlsson & Fait, (1997) J. Immunol Methods 200:121-133). Carboxymethylated dextran biosensor chips (CMS, BIAcore Inc.) were activated with N-ethyl-N′-(3-dimethyl aminopropyl)-carbodiimide hydrochloride (EDC) and N-hydroxy succinimide (NHS) according to the supplier's instructions. AB21 mAb was diluted with 10 mM sodium acetate, pH 4.8, into 5 microgram/ml before injection at a flow rate of 20 micro L/minute to achieve approximately 100 response units (RU) of coupled protein followed by the injection of 1M ethanolamine to block unreacted groups. For kinetics measurements, two-fold serial dilutions of CSF-1R-ECD (0.3125 nM to 40 nM) were injected in HBS-P BIAcore running buffer provided by the manufacturer (BIAcore, Inc., Piscataway, N.J.) at 25° C. at a flow rate of 30 μL/min, and binding responses on the AB21 mAb were corrected by subtraction of responses on a blank flow cell. Association rates (kon or ka) and dissociation rates (koff or kd) were calculated using a simple one-to-one Langmuir binding model with separate fittings of kon and koff was used. (BIAcore™ Evaluation Software version 3.2)."}, "[2]": {"target": "T2, human CSF-1R-Fc protein (M-CSF R/CD115 Fc chimera, R&D Systems) (human, UniProt P07333 20-512)", "T2 construct": "Fc part of the bought chimera not given", "assay": "ELISA, coated M-CSF R/CD115 Fc chimera (R&D), AB21 titrated, goat anti-mouse IgG-HRP, Abs450", "description": "(§2) After binding and washing, the bound mAb AB21 was assessed using a horseradish peroxidase conjugated secondary antibody.\n(§3) One hundred (100) ng of human CSF-1R-Fc protein was coated on a 96-well ELISA plate, and the plate was further washed with PBS. Serial dilutions from 1×10⁻¹² to 1×10⁻⁸ M of AB21 mAb antibody were added to the plate, and the plate was incubated at 37° C. for 1 hour. A goat anti-mouse IgG conjugated with horseradish peroxidase (HRP) was added. After 1 hour, 3,3′,5,5′-Tetramethylbenzidine (TMB) was added and OD450 was read. Every study was repeated three times. Data were presented as mean SD. OD readings and concentrations of antibodies were used to make a multiple scatter plot using GraphPad Prism 5. The values were predicted by four parameter logistic fit."}, "[3]": {"target": "T3, CSF-1R-ECD-human Fc (in house) (human, UniProt P07333 20-512)", "T3 construct": "In-house fusion; also called CSF-1R-ECD-hFc; CSF1R-ECD-hFc; not shown: human Fc", "assay": "blocking ELISA: coated CSF-1R-ECD-human Fc, AB21 titrated together with M-CSF, bound CSF-1 detected with biotinylated anti-CSF-1 BAF216 and streptavidin-HRP, Abs450", "description": "CSF-1R-ECD-human Fe (in house) is diluted to 1.2 μg/ml with coating buffer and coating overnight at 4° C. After incubation step, plates were washed 1 time with the wash buffer and blocking with 1% casein blocking buffer at room temperature for 2 hours. Different dilutions of purified AB21 antibodies were incubated with 250 ng/ml of M-CSF (R&D system, 216-GMP-025) in dilution buffer at 37° C. for 1 hour. After 5 times of wash, the ligand which bound to the receptor can be detected by 50 ng/ml biotinylated […] clone BAF216 (R&D Systems, UK) and 1:5000 diluted streptavidin HRP (Roche Diagnostics GmbH, DE, Cat. No. 11089153001) after 1 hour incubation. Anti CSF-1R SC 2-4A5 (Santa Cruz Biotechnology, US), which inhibits the ligand-receptor interaction, was used as positive control. Plates were developed with TMB Microwell Peroxidase Substrate (KPL, 95059-154). Absorbance was measured at 450 nm. A decrease of absorbance is found, if the anti-CST-1R antibody causes a release of CSF-1 from the dimeric complex. […] Therefore, antibodies of the invention can be used to prevent or treat diseases mediated by CSF-1R or CSF-1."}, "[4]": {"target": "T1, human CSF-1R extracellular domain …", "assay": "SPR BIAcore T200, AB21 amine-coupled, CSF-1R-ECD 0.3125-40 nM as analyte, 25 C", "from_the_text": "as §1"}, "[5]": {"target": "T4, CSF-1R ECD variant 228-233A (human, UniProt P07333 20-512)", "T4 chain": "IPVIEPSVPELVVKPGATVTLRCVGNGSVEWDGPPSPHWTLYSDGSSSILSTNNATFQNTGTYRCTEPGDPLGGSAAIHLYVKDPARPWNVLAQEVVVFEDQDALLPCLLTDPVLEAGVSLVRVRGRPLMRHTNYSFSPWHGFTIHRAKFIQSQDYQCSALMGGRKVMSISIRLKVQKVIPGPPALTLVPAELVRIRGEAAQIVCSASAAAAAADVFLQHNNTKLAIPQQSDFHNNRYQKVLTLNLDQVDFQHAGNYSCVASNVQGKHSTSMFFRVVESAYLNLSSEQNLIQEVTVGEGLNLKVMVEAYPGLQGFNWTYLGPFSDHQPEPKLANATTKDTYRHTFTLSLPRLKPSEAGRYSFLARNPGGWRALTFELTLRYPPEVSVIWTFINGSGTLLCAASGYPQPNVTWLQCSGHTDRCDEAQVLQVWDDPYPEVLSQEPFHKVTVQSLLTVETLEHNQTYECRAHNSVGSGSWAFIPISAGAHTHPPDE", "assay": "ELISA, coated CSF-1R ECD variant 228-233A, AB21 titrated, Abs450", "description": "as §3\nTo determine the binding epitopes of anti-CSF-1R antibody AB21, different CSF-1R extracellular domain variants that certain residues were replaced with alanine were constructed. […] After the variant proteins were purified, the binding affinity of AB21 mAb to these CSF-1R-ECD variants were analyzed by ELISA with the process described in Example 1."}, "[6]": {"target": "T2, human CSF-1R-Fc protein (M-CSF R/CD115 …)", "assay": "ELISA, 100 ng human CSF-1R-Fc coated, four parameter logistic fit", "description": "as §2, §3"}, "mouse CSF-1R": {"target": "T5, mouse CSF-1R (mouse, UniProt P09581 20-511, limits assumed)", "T5 sequence (looked up)": "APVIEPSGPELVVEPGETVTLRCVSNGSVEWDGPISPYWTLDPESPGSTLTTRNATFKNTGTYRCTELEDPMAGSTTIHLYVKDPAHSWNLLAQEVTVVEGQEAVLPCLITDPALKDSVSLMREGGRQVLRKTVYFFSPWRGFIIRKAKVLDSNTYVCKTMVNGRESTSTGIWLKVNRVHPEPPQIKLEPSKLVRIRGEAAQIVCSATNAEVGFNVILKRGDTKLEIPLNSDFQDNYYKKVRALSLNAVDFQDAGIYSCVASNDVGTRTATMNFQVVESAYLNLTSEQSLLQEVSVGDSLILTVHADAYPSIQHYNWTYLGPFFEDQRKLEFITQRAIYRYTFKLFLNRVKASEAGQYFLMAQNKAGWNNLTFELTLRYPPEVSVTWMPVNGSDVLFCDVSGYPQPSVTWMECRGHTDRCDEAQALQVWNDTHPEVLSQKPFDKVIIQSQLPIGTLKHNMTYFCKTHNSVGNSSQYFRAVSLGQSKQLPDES", "assay": "not described"}, "[7]": {"target": "T6, human CSF-1R on the cell surface (THP-1 cells, endogenous); Ba/F3 cells stably expressing full-length human … (human, UniProt P07333 20-972)", "T6 construct": "whole, on cells; also called Ba/F3-CSF-1R; Ba/F3-hCSF-1R", "assay": "flow cytometry on THP-1 cells, FITC anti-mouse secondary antibody, readout CD115+ of single cells (%)", "description": "In addition to binding CSF-1R ECD in vitro, antibodies of the invention can also bind CSF-1R on cells. In this example, THP-1 cells (human monocytic cell line, ATCC® TIB-202™) were stained in different concentrations of antibodies (AB21) from 6 to 0.625 μg/ml. After washing, cells were stained with secondary antibody FITC anti-mouse (1:500 dilution). Cells were fixed with a fixation buffer (FluroFix™ buffer, Biolegend) and analyzed with LSRFortessa FACS analyzer (Becton Dickson, US). […] The dose-dependent binding fits a sigmoid curve in the semi-log plot, indicating binding to a specific site (i.e., the antibody binds specifically to the target on the THP-1 cells)."}},
  "data": [
    {"binder": "B1", "values": [
      {"measurement": "koff", "setting": "[1]", "result": "4.9e-05", "unit": "s⁻¹"},
      {"measurement": "kon", "setting": "[1]", "result": 399000, "unit": "M⁻¹ s⁻¹"},
      {"measurement": "EC50", "setting": "[2]", "result": 0.745, "unit": "nM"},
      {"measurement": "IC50 (read off the curve)", "setting": "[3]", "result": "~2", "unit": "nM"},
      {"measurement": "Kd", "setting": "[4]", "result": 0.123, "unit": "nM"},
      {"measurement": "binding result", "setting": "[5]", "result": "no binding (tested: about 3e-8 M (log -7.5 on the axis))"},
      {"measurement": "Kd", "setting": "[6]", "result": 0.745, "unit": "nM"},
      {"measurement": "binding result", "setting": "mouse CSF-1R", "result": "no binding"},
      {"measurement": "EC50", "setting": "[7]", "result": 0.374, "unit": "nM"}
    ]}
  ]
}
